Measurements as given in paper PMC10221034 (2023).

B1: wild-type rTpiA (recombinant Streptococcus pneumoniae D39 triosephosphate isomerase) [Streptococcus pneumoniae D39] / human plasma plasminogen [human] (parent complex)
chain 1: SRKPFIAGNWKMNKNPEEAKAFVEAVASKLPSSDLVEAGIAAPALDLTTVLAVAKGSNLKVAAQNCYFENAGAFTGETSPQVLKEIGTDYVVIGHSERRDYFHETDEDINKKAKAIFANGMLPIICCGESLETYEAGKAAEFVGAQVSAALAGLTAEQVAASVIAYEPIWAIGTGKSASQDDAQKMCKVVRDVVAADFGQEVADKVRVQYGGSVKPENVASYMACPDVDGALVGGASLEAESFLALLDFVK
chain 2: EPLDDYVNTQGASLFSVTKKQLGAGSIEECAAKCEEDEEFTCRAFQYHSKEQQCVIMAENRKSSIIIRMRDVVLFEKKVYLSECKTGNGKNYRGTMSKTKNGITCQKWSSTSPHRPRFSPATHPSEGLEENYCRNPDNDPQGPWCYTTDPEKRYDYCDILECEEECMHCSGENYDGKISKTMSGLECQAWDSQSPHAHGYIPSKFPNKNLKKNYCRNPDRELRPWCFTTDPNKRWELCDIPRCTTPPPSSGPTYQCLKGTGENYRGNVAVTVSGHTCQHWSAQTPHTHNRTPENFPCKNLDENYCRNPDGKRAPWCHTTNSQVRWEYCKIPSCDSSPVSTEQLAPTAPPELTPVVQDCYHGDGQSYRGTSSTTTTGKKCQSWSSMTPHRHQKTPENYPNAGLTMNYCRNPDADKGPWCFTTDPSVRWEYCNLKKCSGTEASVVAPPPVVLLPDVETPSEEDCMFGNGKGYRGKRATTVTGTPCQDWAAQEPHRHSIFTPETNPRAGLEKNYCRNPDGDVGGPWCYTTNPRKLYDYCDVPQCAAPSFDCGKPQVEPKKCPGRVVGGCVAHPHSWPWQVSLRTRFGMHFCGGTLISPEWVLTAAHCLEKSPRPSSYKVILGAHQEVNLEPHVQEIEVSRLFLEPTRKDIALLKLSSPAVITDKVIPACLPSPNYVVADRTECFITGWGETQGTFGAGLLKEAQLPVIENKVCNRYEFLNGRVQSTELCAGHLAGGTDSCQGDSGGPLVCFEKDKYILQGVTSWGLGCARPNKPGVYVRVSRFVTWIEGVMRNN

Variants of: B1
Assay: ELISA; rTpiA protein-coated microtiter plate; measured 60 min after substrate addition; n = 9; parent: 1.4; read off a plot

chain 1 K14A and chain 1 K60A are the same in response: ~1.3 A405 for the first, ~1.3 A405 for the second.

First: chain 1 K55A
Second: chain 1 K251A
The response of the first is higher: ~1.3 A405 for the first, ~0.14 A405 for the second.

Compared with chain 1 K205A, chain 1 K111A, chain 1 K112A, chain 1 K114A is lower in response: ~1.3 A405 for the first, ~0.86 A405 for the second.

Going from chain 1 K3A to chain 1 K112A, the response falls from ~1.3 A405 to ~1.2 A405.

chain 1 K111A and chain 1 K188A are the same in response: ~1.3 A405 for the first, ~1.3 A405 for the second.

chain 1 K138A and chain 1 K11A are the same in response: ~1.3 A405 for the first, ~1.3 A405 for the second.

First: chain 1 K185A
Second: chain 1 K84A
The response of the first is higher: ~1.3 A405 for the first, ~1.2 A405 for the second.

chain 1 K176A and chain 1 K114A are the same in response: ~1.3 A405 for the first, ~1.3 A405 for the second.

First: chain 1 K29A
Second: chain 1 K215A
The response of the first is lower: ~1.2 A405 for the first, ~1.4 A405 for the second.

Work on chain 1 K20A yielded a response of ~1.3 A405.
